{"source": "the DeepSol protein solubility set", "data": [{"assay": "soluble on expression in E. coli; label from the status in PepcDB or PDB records", "values": [{"sequence": "MGSDKIHHHHHHMFFEIALIGTTASGKTYIANTLAREFNAVVLSLDSLCVYKEINIASAKPSQDDLASIKYFGVNLLSVNEHFNVELFIREYQKAKEFALARNLPLIIVGGTGFYLKTMIDGLSEKTLESKSSLNNDEIYALLLNIDPNYKIEKNDTYRLKKWLGIYEQTREIPSEFLKRTQKTGVLKDIEIYELAWDKEILKKRIKTRTKEMLDNGLLDEAKILFSKFDHKLKALNSIGLKECKEYLDGEISFKELENLITIHTTQLAKRQRTFNKKFQSKALEFDKALATLRMKFSIEK", "soluble on expression in E. coli": "not soluble"}, {"sequence": "MGSDKIHHHHHHMFFYNIHQPMKTLIENLTSDLLPNQIFQTGFSFLIILKGNSLLKLDSNVLIFIMSGTMKVSSAQQELATVRERHIFFWDKEDDYTCEMLSDSQVILFAFGDLIVHDLLTFRPFGAISDSSVSKDVGLKFAEPLNSFLQLLAQYMEMNLYDLSLYIAKQRELFYILNSVYNEQELAILFSSLTEQSSRFKEQILENYLSAKNVGELASLLGYGVTNFRAKFKEQFGVSVYRWLLNRKSQHIIYRITVYGDEFSQIIDDFGFSSPSHFNKFCRSQYGLTPCELRKKLKTNNNS", "soluble on expression in E. coli": "not soluble"}, {"sequence": "MGSDKIHHHHHHMFKKIVLHGWRQFRNVDIDFHPRLTVLTGANGAGKTTLLNLVSRHFGWDGSFISTPVPRRSNPSLMYSTDFWDIDDIQVDIIHSFEREQNRKKQAAAQGSQTTIGKIIYGDGTETLITVPNSEVGSRYDVSIPARQRIDGLHIPSHRAPSTYQQVQNIPTIPRRRQEVFNQYLSLVQSRYLGSYTQWSPQYYMKETLISLATFGYGNAVVDADPESARLFEGFQEILRKMLPPKLRFKRLQIRVPEVILETETGNFSIDALSGGAAAVIDLAWQVFMYEPSESEFVVTLDEPENHLHPELQQRVLADLLTAFPSVQFVVATHSPFIVGSVPHSHVYVLGYDDSRRVNSTLLDTVNKTGTANEILRDVLGLEFTIPVWVENRLENLIEKYSKKDFTEDNLMMLRQEMTSLGLGKHVPQTISMLAQKKDGQ", "soluble on expression in E. coli": "not soluble"}, {"sequence": "MGSDKIHHHHHHMFLILLEVIVTSCPLLSSSFARLNPIPLDDAVIRTFMFIILHCKDKSIANPGAIIYKPFYPKFRVMERNELVNFVEGILKRIGFRTMKLEFRGGCFDLVATRQLLLLFIKALANIDKFSEEQAEDLKKLAKLFKASPLLVGLRSKNAELEDGVVYERFGIYAITPGTLYSMFAEGEPPLIIAERGGFYVRIDGKKLKALREEHGYSITELAGILGISRKSLQRYEKGESVVSLEVALRLEEVFDEPLVKPIDVLRARLKDVTLTSEPDNILEKEVFEKLRKLGMSVVKIKTAPFNAITKEEEDDIELLTGIDERKTGRTLKRAELVSQMAEVVGSDGVFVVKKARMEVVRNVPILPKKLLEEIKDADELLELIRDLKFKS", "soluble on expression in E. coli": "not soluble"}, {"sequence": "MGSDKIHHHHHHMFMERQDRYYQTYLNILKEELVAAMGCTEPIAIAYGAAKAREVLGAVPHKVVLEVSSNIIKNVKSVVVPNTDGLKGIEAATAAGIIAGRSDKILEVIAEVCQAEKQQIKTYLSETDIEVKLADSQIIFDIMITMFHQDSYVKLRIADYHTHIVHIEKNGEIIFGTGDLDAGISSLTDRKLLSVSKIIEFADSVRIEDVKELLDKQIEYNSAIARAGMEGNYGANVGRVLLKTYGNDVKIRAKAMAAAGSDARMSGCELPVIINSGSGNQGMTASLPVIEYAAELQSGEEKLYRALVVSNLITLHLKTGIGRLSAFCGVICAGCGSGAGIAYLHGGGYDEIAHTIVNAAAIVSGIVCDGAKPSCAGKIAAAVDAGILGYLMYKEGQQFRGGDGIVAKGIENTIANIGYLGKVGMKETDKEIINIMLNQCSS", "soluble on expression in E. coli": "not soluble"}, {"sequence": "MGSDKIHHHHHHMFTGTFTLRSRKSRHDHSSGNVRVCENEDMFESVGTWWRNLTHRHGDDRNNDDTLDDATNTLLSILPLASIVVDEHDEVIRAHPDAYALGVVRDDAIADDTVASAVHEVRAHGGKKQFSLTTTTLHEPKKAPKAGKPTMREVAKQALIGQSPDKPVTTVSRPNWLKVIVGRLNERFVVVLVSDVSETVRFSQIRDSFITNVSEQLLKPTQSLEELADALEHDSDNKAAIEGNTVKLRQSCARMEHMVSDLLLLIKAQEPILPTASNRINVMEQVKTVVDAHRDMAQRRGIDIEIDGDESLDINGEGEQIQAAVAKLLENAIAYSPDGKGITVSVKPNEDGTKVLLSVLDRGCGIAQKEQSRIFERFYRGGNQNGHSEEGIGLGLAIVKHVALTHHGSASVWSAPGQGSTFTLGLPVARN", "soluble on expression in E. coli": "not soluble"}]}]}
